The supplement of paper PMC12636428

What follows are sequences tested on Saccharomyces cerevisiae (assay: transcriptional activation domain activity (GFP:mCherry ratio, weighted mean of sorted bins, harmonized to initial dataset scale) (arbitrary fluorescence ratio units); higher = stronger transcriptional activation). Settings: beta-estradiol 1 µM; induction time 4 h.
How it was run: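 Sorting into 8 bins by GFP:mCherry ratio followed a 4-hour hold at 30 °C after cultures were diluted 1:5 into SC with 1 uM beta-estradiol. The yeast diploids carried a GFP reporter and had barcoded protein tiles, fused to an estradiol-inducible synthetic transcription factor, integrated at URA3. Barcodes were then sequenced, and tiles with under 50 reads were removed. Activation activity is the read-weighted mean of bin median fluorescence, averaged across barcodes and linearly mapped onto the initial dataset scale.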

| Sequence | transcriptional activation domain activity |
| --- | --- |
| EDLRAAMEEEEEVEENEAEEEWVDVMKKHRVQASRLELLASGVGTGRTTSPVD | 15900 |
| LCAPIEVFRNICLPFVRLLHPLFFLSLLVFVEIIFPLFIPLTLLHCFLVLFGV | 55100 |
| MMFFFFFLVSFIYFWIGAPVGFFILKIKFVMLDVQSLHLAIFLICPHLCFYVM | 54400 |
| MSENTAIENVTVTLEKTKLDAPVTNEAEVAHAASAAEGRRLYIGNLAYSTTEE | 16900 |
| FVHVYLRKRISGFPPGYRVAGELIIWCGAVVALSFESILATDASGSGYRLSDP | 58200 |
| RVEEEGKSGVPAGDRFCGISLRPGILTDGEAGGVKVGKIGTGGKTARATVAES | 22900 |
| VVSFFVILGYMLLYRMRSTQLWSNRSTSSFGERPKPPIVAYRSIIIRIGLRKL | 67300 |
| GDDEETQGNATKNILDDWEGAPESFVCQEQRQTGGRVAAKTQRLLSFSIHDEL | 23100 |
| VLFAVAVYMNHVPTAILWMSCVSAKLFSFCSQTFFVIRVYFLPWRFDLVFIPL | 37600 |
| ESASTNTSSALNCQSYTNNQDIMDILFQVTSGSVWDEFFVRSGNGNEGESSYD | 86700 |
| SPWVSWADTHSNFSRVVQVPSIYWRADPYSTASAETLRWATVVCVLLFFAYFR | 42700 |
| SRVMRHFSAVEAGCFLWIWILVRIEGGMLLVNLYLDTTRITSTILNLYTACTG | 78500 |
| NKWLNVIQKFLKELDGRDKLMKTIQYFIKILLHYKMARAKHWSSLTSHLSMTR | 66400 |
| VYIYAKTISIVLLTDIYIGKYTYILISLKLLARKKFYNILTNPIFCAHIRLVI | 55300 |
| KDGKQRRTREAAGSGHARRRRRGDRERRKGQPRAGRPGAKAKGKAGGTGAKQE | 15700 |
| MIIYYIGSIFWCLGNLQVGGFFGFDGIWSYCIFWRNWVRDVFGLSVLIGVVNY | 44900 |
| GVEKTAEKPSEEPAEEAPEKKAEPTTEEPEPEAAKPKARGGRPKKVIAAPKED | 38300 |
| DSPVDRAMNTPLQQQEGLKAELPHDFLFQHGTDDTMYNLTDDLSSSLSSSINS | 68200 |
| AAPTETAPPAAEPAPVAAPIETKAAEPAAPVTEAPATTATEEVKPAVEPAKTE | 49400 |
| MACCNQTWLYIPTNYYFAFLMFGISIVHVLFIQNQGFSRVIFFLFFAWDLFVS | 84600 |
| MATVISGVCFFFFFFFFCFLLCLVMAFLLLFSFLFLCDLLLRLLLLSPSFDSL | 31200 |

| Sequence | transcriptional activation domain activity |
| --- | --- |
| CFSLCFSLCFPFAFPLLFPFFPLLFPLLFPLLSLCFSLCFSLLPFPLELPFLF | 37100 |
| SSSDFVPVNFEADSLPYTPTTLDGLASLTSLEDLFSADDALASFDWSEWPWIY | 156000 |
| MIRWVFFRGYLGQEGFLSFLFFFVFFSGLSLWERIGYGFFILPSFYMDLLFLA | 58300 |
| MIVFLFWVIGINLDCNCWFSLFLILLMRVMDLMSYGWIIEVFFFLLNFYYLLF | 53700 |
| GPDPFQQLSSAEHPNNHSSDDEHSGSQPLPLDSITIGIPPTLHTIPMILSKDN | 62900 |
| MYFVYTYSGLAFFFFFSFFWCTSIYLNILLVLFYLALGFCKVYFLLLFYLPKT | 39900 |
| VLSDKEKHRVASQHLNGESSPQLVPHSHHQPHSDTDEEDWESIGAASLRNNSL | 35500 |
| IHRLTFFFFFCFFFFFFCLFSFSVSFFFFLFFFFLFSTSLLARRFLSLFSSVA | 50100 |
| PTPSGDPEEEEEGEGEEGGEERGGGGGGGGGKKKNHAGAIAGGVVGGVAVIGL | 24600 |
| MTLLLLLLLLLFSYNFTYIYLFFLLLSFHLCVSLYTTFTLNFIFLYTSLYILD | 74200 |
| GIPDELAWMLCLDGLDCIDGETYNLPLLRQFMELFPSLPLTSLLTAYFLYMDI | 119000 |
| FLDFLDLWTFGLFGPLDFLDFLDFLDFLDFLDFLDFLDLWTFGLFGPLDFLDF | 46900 |
| STFGKYVHCRLLEGNTGMKIPQAAVIALIFRFLEKLVNTRLAVISRRWAMVTL | 67000 |
| HSDLLNDMDSASQRASHNASGFPNFLDTSCSSSFDDHFIFTNNLPFLNNNSIN | 60800 |
| GSSDGGSHNAPGAPRPMALRALITTKEAGVIIGKNGKNVAEMREQSGAKITVS | 48900 |
| HRGVSVGIQFAPAGSSWYVEPHKCLIWKSFYFLMMYFMHMCVEYVLLLRVLAL | 41200 |
| RNVEDCAATNGSLVPISMPGGKREENDRRVPRANVSKVIILGSGGLSIGQAGE | 44500 |
| IAQRLEILIYSHIVCIPLIASFSCLSWIFWMEYYFAWWFDSVITIRDINWHML | 36500 |
| MSAPVEEKMAALNVNDKKPAAPKADKKAKKSKGTEGEYPLEFSPAPEYLQHRI | 30300 |
| VSMMQRILNIVCILPSLLERYDTLVALSETSNLGEVERLWIDCHAFLTNLRIW | 62400 |
| KKEPVYDSEGNEVKPTPRKRVKKEPATEEDGSESKSASKKRVKKEADAEGDSS | 17100 |

| Sequence | transcriptional activation domain activity |
| --- | --- |
| MGGVWGFLWSFFFLFPLFFFSLSKDGLDCFISFILVSFYFFSFLFCIHVFFFS | 15600 |
| KIHLVNIGQVLVLLLHRFLYGIIPLFEITTCAYFPFLVSLWHIQYILFYAVMF | 84900 |
| KPATTTASSAQPSTTASATPGGLFGGGAQSGSSTPAGGLFGAKPAAAPSPAPA | 44900 |
| MDGVFGDCFFFLCFIFVFCFITFFFFFGLLLLLCCYGLDGGYVLVFFFLFFFV | 33500 |
| MTVSLQLYSHTLQLVLCCACAPPLLKFLLFCFFFFFWFFFFFWFCFWFFLLMF | 38000 |
| ISVLLVPYAWAILLAFLLLPVFLCVICMDWTYIPFYLPFFPMIGVFSIVIPLF | 21100 |
| VVAAETAPATEEKPAEETKPAEEAAKAEEKKEEEEIKPVEEGHLNHKAQGLSF | 49400 |
| TLELFKLKLVRPASKVYHMGGCAELWGFLVMQNHFRDGEGGHFNSITIDVKWA | 59800 |
| DGVTNTPVELGVAKEGGNLEVVNSRTALVVSKHWILLIGLLGRYGMRKDKGVL | 49400 |
| MHCEGCIQVIYRCYCLLIFLFFYYVCLFCLYILGKQLGLVHVFFYKYWCFFIL | 53100 |
| MFPGLQYTLLCIHLSCDFIICCRAFLPYYLCFSHYFPVLMCPVSPVLILVWFI | 53600 |
| MTSRHSFKAIKVLVICCVFLFFLLLKRKDHFNSCCLIFHIKIGLIDVLIFFYF | 41900 |
| VPPELYVCAEIVRMVMGYVEGGFVKSSSNHKIRPEVLLIACLIVSIKICYSME | 61300 |
| SIWSFSTLLSILARDHVFYFFIKQNVDTFYIWLLETTAIYYIFMLGPIMFLSI | 60600 |
| YNGLPRFKWFISTVWVIYAGSCLLPFAGMVGTQILPLNRCIGVFKKPYPAILF | 63300 |
| MFLCCVCIEAQARILYLCCLYKLLTFYSFYYFYHSYFLLILNFFLLTILHALC | 74000 |
| LLGVLTLLLLYCNVVLITYHVPTWSRPLDIAFIHAPVRLFFILPLSLLFPYSL | 56100 |
| LLGMFAQLAFADYVMTPSQARLALFVFERLLKLLRAAPYPCVRVAILQLLMWL | 45500 |
| TTAETTAPAAETDAAAKVEEAKPAAATTEAKPAAAAPKPAADKKVKRSSTILQ | 10600 |
| KTIGKQDPYCAARLGKEAKKTETDRRGGQTPRWDQELRFTVHDSPDYYQLKVS | 55000 |
| KEEDEAPAPRKARGKAKKAIVEEEEAPESEVEAPEPKAKKGRGRKAAVKKVVS | < 6570 |

| Sequence | transcriptional activation domain activity |
| --- | --- |
| SLAFQVDFTRKYGMVGFFLFWMMSQEAHHDPLLLLLHSPLYFPIFLLFWVILN | 68800 |
| EHIEVDLTGIEEVTTGAGLLSRTRTSRHCFLHKTKVLQILDMKCTHDHPSPSS | 29800 |
| LVREHELLGVIICHLVKSNQSGLTDLEYLLNIVKKIDKYDNLLVHYFPALGAL | 24500 |
| MSNGFFLGLWVLIKRPFFFFFFHLFVMHGVLGGCWDLLVGFVCLHRGFWFLFW | 70700 |
| YVDEENQSSNGAVRLWKRHFTLSGIMNRLLRKTVRRNTWIYISVSTLIVQIRR | 45700 |
| IDPHGYDANGLYEIGTIVSSIAVCVANFFVVFSLYSYTWIQALVISLSILVYY | 45700 |
| MGGGVYVCRSGAVYLFWVLLFYGLMFLTVDVITYLLAYLTLPMYLFFLLLVSF | 39200 |
| KQLAKKTESFSGSDLKHLCVSAALDAVKERVTVPWRHSTTSAPSSSAPAEAQP | 19000 |
| MSPLPSPLSFPLFLFFSLSLSNLVCMPHPLLSSLSLSTPPALFFLYLFFLATL | 55100 |
| QVCFLGLSFRCVIGIDQMRCRSGYCSFVSLLYTLGNLSGVFSGIFAYAFSHLN | 66500 |
| MGCICVILARCYCQTLNHFLTVLLLFRSVIFVLFLLFHFFVFVYVLFFFSFII | 42000 |
| MDSRPAKRPRKTETEDTLDDTDKKPHKKPPLSCAECRRLKLKVATLAASVIVY | 69000 |
| MYNTALITIYLLLLLRRIFFTWSYLAYSFNFIATRVFARITMLMLVELFRQHD | 67400 |
| ATWKLVQIGYRRDESLFLYFFYFYLFLFCFNMCGSSFYLLLLCCHIHIVAHSV | 71000 |
| MSWPFFYLSFSLFFPPLLLDRGLLLLCGFFFLFLYIFLPGILWHLEAWFFLLV | 59300 |
| FFFVCYILQTLGMIAYMIMIVYDYYQNYLWFRGVAVVQSSTFIGQWYVFFIWF | 57700 |
| NSVPGSPETPTSSSLDGSRETGYLRVRVVSAKDLAARMRSRTATCSASAGSPL | 42100 |
| IGLQMASFVLGGFVYFGLSFQSSNYVVLLYYEFAALSQNVYLTVAIIWRLLIF | 72300 |
| SSPKKKGASKSDSAGRGNTAAAAKGRGKAKANAKGSPKKGGGGSARKRRKTAE | 41100 |
| IVCGCMGAAGFRYFLNLPFLWFFLLHWCWWFTNDYLLYHVLVQEHTLPFNKFV | 32500 |
